According to patent US20230025732A1 (INNATE PHARMA, published 2023):

Legend:
[1] = biological target: T1, cynomolgus (Macaca fascicularis) CD39 on CHO cells (cynomolgus (Macaca fascicularis), UniProt A0A7N9DGH8 1-510); assay: flow cytometry titration on CHO cells expressing cynomolgus CD39 (Mediane of Fluo), panel CHO-cyCD39
T1 construct: whole, on cells; also called CHO-cyCD39; cyCD39
T1 sequence: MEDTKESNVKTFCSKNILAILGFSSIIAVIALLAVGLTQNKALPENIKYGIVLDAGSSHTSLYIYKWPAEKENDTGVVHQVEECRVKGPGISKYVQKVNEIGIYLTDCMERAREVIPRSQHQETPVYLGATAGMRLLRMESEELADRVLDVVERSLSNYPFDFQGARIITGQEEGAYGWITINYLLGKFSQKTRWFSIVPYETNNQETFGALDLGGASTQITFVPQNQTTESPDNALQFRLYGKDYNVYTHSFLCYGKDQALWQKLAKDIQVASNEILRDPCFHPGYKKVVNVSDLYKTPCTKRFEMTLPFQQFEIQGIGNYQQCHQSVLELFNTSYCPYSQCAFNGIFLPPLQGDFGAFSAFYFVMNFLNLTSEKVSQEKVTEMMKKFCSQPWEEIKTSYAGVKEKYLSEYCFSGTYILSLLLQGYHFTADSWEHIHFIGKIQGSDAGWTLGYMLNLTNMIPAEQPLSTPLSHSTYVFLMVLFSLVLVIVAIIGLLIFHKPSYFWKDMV
Procedure: (§1) Cells were incubated with various concentration of unlabeled anti-CD39 antibody from 30 μg/ml to 5×10⁻⁴ μg/ml, for 30 minutes at 4° C. After washes, cells were incubated with Goat anti-mouse H+L labeled secondary antibody for 30 min at 4° C.

murine CD39 on CHO cells = biological target: T2, murine CD39 on CHO cells (murine, UniProt P55772 1-510); assay: flow cytometry titration on CHO cells expressing murine CD39 (Mediane of Fluo), panel CHO-moCD39
T2 construct: whole, on cells; also called CHO-moCD39; moCD39
T2 sequence (looked up): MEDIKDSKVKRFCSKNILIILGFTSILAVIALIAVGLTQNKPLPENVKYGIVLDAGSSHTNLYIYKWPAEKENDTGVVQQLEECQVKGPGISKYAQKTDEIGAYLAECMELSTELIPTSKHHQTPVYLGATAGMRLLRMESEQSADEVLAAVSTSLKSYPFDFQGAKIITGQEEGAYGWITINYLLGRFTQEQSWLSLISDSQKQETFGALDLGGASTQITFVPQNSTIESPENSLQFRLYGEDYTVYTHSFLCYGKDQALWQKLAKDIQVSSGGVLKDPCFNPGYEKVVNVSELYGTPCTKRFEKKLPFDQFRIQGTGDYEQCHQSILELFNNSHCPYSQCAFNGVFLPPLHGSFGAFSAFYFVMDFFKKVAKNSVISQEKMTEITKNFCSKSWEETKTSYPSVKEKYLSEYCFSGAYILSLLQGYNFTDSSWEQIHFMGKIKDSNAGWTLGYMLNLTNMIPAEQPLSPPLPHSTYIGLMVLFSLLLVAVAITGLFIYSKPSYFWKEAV
Procedure: as §1

[2] = biological target: T3, human CD39 expressed at the cell surface (human, UniProt P49961 1-510); assay: flow cytometry titration on Ramos lymphoma cells (Mean of Fluorescence), panels L0, L1 and L1*
T3 construct: On CHO transfectants, Hek-293T transfectants, Ramos and Mino tumor cells; also called huCD39; CHO-huCD39
T3 sequence: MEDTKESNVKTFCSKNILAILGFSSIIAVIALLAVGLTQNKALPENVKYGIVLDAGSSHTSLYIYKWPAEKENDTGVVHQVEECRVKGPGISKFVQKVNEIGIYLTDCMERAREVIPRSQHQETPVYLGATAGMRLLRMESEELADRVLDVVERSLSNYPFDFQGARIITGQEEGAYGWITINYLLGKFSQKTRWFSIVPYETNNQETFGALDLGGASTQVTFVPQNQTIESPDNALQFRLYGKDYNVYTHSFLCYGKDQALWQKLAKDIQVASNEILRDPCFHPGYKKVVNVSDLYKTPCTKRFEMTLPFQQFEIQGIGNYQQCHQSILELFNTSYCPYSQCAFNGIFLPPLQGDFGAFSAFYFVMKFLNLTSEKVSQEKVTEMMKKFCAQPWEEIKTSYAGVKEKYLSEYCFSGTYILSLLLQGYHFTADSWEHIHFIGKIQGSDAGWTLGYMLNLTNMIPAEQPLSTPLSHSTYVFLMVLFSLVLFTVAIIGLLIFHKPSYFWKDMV

[3] = biological target: T4, CD39-M2 extracellular domain recombinant protein (soluble recombinant human CD39 with M2 tag) (human, UniProt P49961 38-478, limits assumed); assay: cell-based or functional assay
T4 sequence: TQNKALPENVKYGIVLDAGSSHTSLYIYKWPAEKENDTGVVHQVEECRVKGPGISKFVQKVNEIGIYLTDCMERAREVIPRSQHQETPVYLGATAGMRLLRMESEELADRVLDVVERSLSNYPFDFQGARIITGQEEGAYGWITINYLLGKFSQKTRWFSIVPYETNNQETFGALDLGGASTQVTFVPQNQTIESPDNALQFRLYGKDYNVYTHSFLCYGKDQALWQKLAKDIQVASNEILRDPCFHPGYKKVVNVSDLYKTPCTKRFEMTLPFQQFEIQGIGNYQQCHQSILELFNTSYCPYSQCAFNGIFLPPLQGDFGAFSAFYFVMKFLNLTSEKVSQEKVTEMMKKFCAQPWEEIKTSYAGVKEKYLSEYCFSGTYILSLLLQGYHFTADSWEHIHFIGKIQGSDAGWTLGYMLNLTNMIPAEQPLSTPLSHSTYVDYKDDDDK

[4] = biological target: T3, human CD39 expressed at the cell surface; assay: cell-based or functional assay

B1: I-394 (antibody, human IgG1, V domains shown)
VH: EVQLQQSGPELVKPGASVKMSCKASGYTFTDYNMHWVKQSHGRTLEWIGYIVPLNGGSTFNQKFKGRATLTVNTSSRTAYMELRSLTSEDSAAYYCARGGTRFAYWGQGTLVTVSA
VL: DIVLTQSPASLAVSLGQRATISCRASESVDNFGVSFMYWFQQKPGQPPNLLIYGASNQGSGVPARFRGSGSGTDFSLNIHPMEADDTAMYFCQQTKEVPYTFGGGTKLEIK
EC50 (read off the curve) [1]: ~0.4 µg/mL | binding result (murine CD39 on CHO cells): no binding (tested: about 30 µg/ml) | EC50 (read off the curve) [2]: ~0.5 µg/mL | IC50, inhibition of ATPase activity of soluble CD39 [3]: 0.003 µg/mL | IC50, inhibition of CD39 ATPase activity in Ramos cells [4]: 0.05 µg/mL
